The target of the series is T1, LtmA (Ms6479) (Mycobacterium smegmatis mc2155, UniProt A0R6A5 1-189).
T1 sequence: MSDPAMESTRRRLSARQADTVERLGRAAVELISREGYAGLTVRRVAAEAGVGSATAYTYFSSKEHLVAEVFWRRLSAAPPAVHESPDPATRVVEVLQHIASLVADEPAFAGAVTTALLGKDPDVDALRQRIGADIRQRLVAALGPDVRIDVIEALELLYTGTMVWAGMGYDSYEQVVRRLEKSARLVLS
Briefly: EMSA. Background: A gel shift assay detects complexes by their altered migration in electrophoresis.

B1: Ms6484p5 (dsDNA)
DNA 1: CAAACTATAGCAGCTCTCCACCTGACACGGTTTCGGAG
DNA 2: CTCCGAAACCGTGTCAGGTGGAGAGCTGCTATAGTTTG
For B1, the binding result is “no binding”.

B2: Ms6484p4 (dsDNA)
DNA 1: CTCCGAAACCTCTGGACATGTGTCCAGACTATAGTTTG
DNA 2: CAAACTATAGTCTGGACACATGTCCAGAGGTTTCGGAG
Regarding B2, the binding result is “binds”.

Values taken from article PMC3526308.
